Data on two molecules can be found in publication PMC3465527.

One data set addresses T1, Mss116p MBP-D1 (Saccharomyces cerevisiae? (paper: yeast), UniProt P15424 88-330).
T1 sequence: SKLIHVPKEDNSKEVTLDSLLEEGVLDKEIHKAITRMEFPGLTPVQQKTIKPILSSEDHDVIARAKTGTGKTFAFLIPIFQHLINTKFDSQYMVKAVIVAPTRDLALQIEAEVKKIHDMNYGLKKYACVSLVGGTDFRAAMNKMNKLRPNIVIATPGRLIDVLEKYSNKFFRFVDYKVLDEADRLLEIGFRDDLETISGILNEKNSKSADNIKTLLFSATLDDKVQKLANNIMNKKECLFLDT
The experiment in a line: EMSA. A general note: Mobility shift assays separate free from complexed probe on a gel.

A further data set deals with T2, Mss116p D2 (with CTE) (Saccharomyces cerevisiae? (paper: yeast), UniProt P15424 342-597).
T2 sequence: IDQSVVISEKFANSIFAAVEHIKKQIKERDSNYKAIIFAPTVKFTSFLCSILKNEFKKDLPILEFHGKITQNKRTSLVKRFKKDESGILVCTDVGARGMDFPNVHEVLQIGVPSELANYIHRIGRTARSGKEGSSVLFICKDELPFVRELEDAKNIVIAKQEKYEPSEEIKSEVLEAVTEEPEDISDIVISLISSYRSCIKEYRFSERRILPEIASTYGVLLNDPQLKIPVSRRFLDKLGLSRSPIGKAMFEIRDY
The experiment in a line: X-ray crystallography.

B1: FAM-dsRNA 14-bp (dsRNA)
RNA 1: GGGCGGGCCCGCCC
RNA 2: GGGCGGGCCCGCCC
Regarding B1, the binding result with Mss116p MBP-D1 is “no binding”.

B2: chimeric RNA-DNA duplex 14-bp (mixed)
? 1: GGGCGGGCCCGCCC
? 2: GGGCGGGCCCGCCC
modifications: each strand rGrGrGrCrGrGrGdCdCdCdGdCdCdC: nt 1-7 RNA, nt 8-14 DNA
For the molecule B2, the binding result in the data set with Mss116p D2 (with CTE) is “binds”.
